According to paper PMC5832153:

Molecular target: FliC-aGFP_ENH_V2 (Salmonella) (UniProt P06179)
Assay: ITC; sfGFP (0.065 mM) injected in 10 μl portions into FliC-aGFP_ENH in the cell; 25 °C; 20 mM Tris-HCl, 150 mM NaCl, pH 8.5; one-binding-site model

UniProt P06179, sequence (P06179 whole entry): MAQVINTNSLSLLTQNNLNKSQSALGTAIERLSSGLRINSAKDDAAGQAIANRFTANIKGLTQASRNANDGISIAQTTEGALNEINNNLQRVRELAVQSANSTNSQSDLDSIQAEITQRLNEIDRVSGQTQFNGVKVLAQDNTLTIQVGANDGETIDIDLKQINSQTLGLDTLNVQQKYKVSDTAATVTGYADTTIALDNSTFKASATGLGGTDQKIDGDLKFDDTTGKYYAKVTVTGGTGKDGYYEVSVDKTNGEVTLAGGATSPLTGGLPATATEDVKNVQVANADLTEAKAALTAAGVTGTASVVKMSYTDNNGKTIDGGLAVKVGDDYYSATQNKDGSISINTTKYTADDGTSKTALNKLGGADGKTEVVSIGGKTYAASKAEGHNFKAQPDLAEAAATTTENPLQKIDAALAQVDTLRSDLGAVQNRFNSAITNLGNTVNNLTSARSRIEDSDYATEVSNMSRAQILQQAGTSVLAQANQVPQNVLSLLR

## C-terminally His-tagged superfolder GFP (from UniProt P42212 1-238) (natural protein)
  Kd: 1.1 nM
  dH: -9.3 kcal/mol
  stoichiometry N: 0.86
